Test results as given in paper PMC12524980.

Target: PpiC of E. faecium (mature PpiC, residues 25–336) (E. faecium)
Experiment: SEC-MALS; SEC coupled to light scattering (SEC-LS); 500 micrograms loaded on Superdex 200 increase 10/300 GL (PpiC) or Superdex 75 increase 10/300 GL (PpiC^ΔC); 50 mM Tris-HCl, 150 mM NaCl, 5% glycerol, pH 7.8; 0.5 mL/min

With “PpiC of E. faecium (mature PpiC, residues 25–336) (enzyme)” the stoichiometry N was 2.
